# Assay results from patent US20110212853A1, “NOVEL DIAGNOSTIC METHOD” (PROBIODRUG AG, priority 2010, published 2011).
# Assays:
# [1] = test system: DP4 or a DP4-like activity in human serum; assay: Degradation of Gln1-MCP-1 in human serum in presence of DP4 inhibitor; type: biochemical; details: 9.6 μM inhibitor, 24 h, FIG. 7C
# Experimental: (§1) For cyclization of the N-terminal glutamine residue into pyroglutamate, MCP-1 was incubated with recombinant human QC for 3 h prior to assay start. In addition, Gln^1-MCP-1 was incubated in human serum in the presence of 9.6 μM DP4 Inhibitor Isoleucyl-Thiazolidide (P32/98) for 24 h (C). The cleavage products were analyzed after 0 min, 10 min, 30 min, 1 h, 2 h, 3 h 5 h and 7 h for Gln^1-MCP-1, 0 min, 30 min, 1 h, 2 h, 3 h 5 h, 7 h and 24 h for pGlu^1-MCP-1 and 0 min, 1 h, 2 h, 3 h, 5 h, 7 h and 24 h for Gln^1-MCP-1 in combination with Isoleucyl-Thiazolidide using Maldi-TOF mass spectrometry.
# (§2) Human recombinant MCP-1 carrying an N-terminal glutaminyl residue (Peprotech) was dissolved in 25 mM Tris/HCl, pH 7.6, in a concentration of 100 μg/ml. MCP-1 was either pre-incubated with recombinant human QC (0.006 mg/ml) for 3 h at 30° C. and subsequently incubated with human serum at 30° C. or incubated with human serum without addition of QC. The cleavage products were analyzed using Maldi-TOF mass spectrometry after 0 min, 10 min, 30 min, 1 h, 2 h, 3 h 5 h and 7 h for Gln^1-MCP-1 and 0 min, 30 min, 1 h, 2 h, 3 h 5 h, 7 h and 24 h for pGlu^1-MCP-1.
# [2] = N-terminal degradation of human MCP-1 in human serum, Maldi-TOF mass spectrometry; type: in vitro ADME
# Experimental: as §1
# Matrix-assisted laser desorption/ionization mass spectrometry was carried out using the Voyager De-Pro (Applied Biosystems, Darmstadt) with a linear time of flight analyzer. The instrument was equipped with a 337 nm nitrogen laser, a potential acceleration source and a 1.4 m flight tube. Detector operation was in the positive-ion mode. Samples (5 μl) were mixed with equal volumes of the matrix solution. For matrix solution sinapinic acid was used, prepared by solving 20 mg sinapinic acid (Sigma-Aldrich) in 1 ml acetonitrile/0.1% TFA in water (1/1, v/v). A small volume (≈1 μl) of the matrix-analyte-mixture was transferred to a probe tip.
# as §2
# [3] = test system: human THP-1 monocytes; assay: TransWell chemotaxis assay; type: cell-based; details: for MCP-1 concentrations needed to elicit the maximum response: after incubation with human DP4, with (pGlu^1) or without (Gln^1) QC pre-incubation, FIG. 12; for influence of pGlu-formation at the N-terminus on chemotactic potency: compared to the respective glutamine-precursors, FIG. 11; for chemotactic potency of N-truncated DP4 cleavage products: truncation by 2 amino acids, FIG. 13
# Experimental: The chemotaxis assay was performed using 24 well TransWell plates with a pore size of 5 μm (Corning). THP-1 cells were suspended in RPMI1640 in a concentration of 1*10^6 cells/100 μl and applied in 100 μl aliquots to the upper chamber. Cells were allowed to migrate towards the chemoattractant for 2 h at 37° C. Subsequently, cells from the upper chamber were discarded and the lower chamber was mixed with 50 μl 70 mM EDTA in PBS and incubated for 15 min at 37° C. to release cells attached to the membrane. Afterwards, cells migrated to the lower chamber were counted using a cell counter system (Schärfe System). The chemotactic index was calculated by dividing cells migrated to the stimulus from cells migrated to the negative control.
# MCP-1 starting with glutamine 1 (Gln^1-MCP-1) (Peprotech) was incubated with recombinant human QC to generate pGlu^1-MCP-1, or with human recombinant DP4 to generate Asp^3-MCP-1. Concentrations of 1, 5, 10, 50, 100, 500 and 1000 ng/ml of the generated MCP-1 variants were tested using the THP-1 chemotaxis assay (n=3).
# MCP-1 with N-terminal glutamine (Gln^1-MCP-1) (Peprotech) was incubated with recombinant human QC and DP4 (Gln^1-MCP-1+QC+DP4), human recombinant DP4 alone (Gln^1-MCP+DP4) and with recombinant human QC in combination with 10 μM of QC-inhibitor 1-(3-(1H-imidazol-1-yl)propyl)-3-(3,4-dimethoxyphenyl)thiourea hydrochloride and DP4 (Gln^1-MCP-1+QC+QCI+DP4). Concentrations of 1, 5, 10, 50, 100, 500 and 1000 ng/ml of generated MCP-1 variants were tested using chemotaxis assay (n=3).
# Concentrations of 1, 5, 10, 50, 100, 500 and 1000 ng/ml of a particular MCP were tested using chemotaxis assay (n=3).
# For the generation of the DP4 cleavage product, the respective MCPs were incubated with human recombinant DP4 at a 1:100 dilution for 2 h at 30° C. prior to assay. Concentrations of 1, 5, 10, 50, 100, 500 and 1000 ng/ml of a particular MCP were tested using chemotaxis assay (n=3).
# [4] = target: MCP-1 receptors (Homo sapiens, UniProt P41597); details: cited from earlier work
# Chain of MCP-1 receptors (P41597 whole entry, the tested form may be a part): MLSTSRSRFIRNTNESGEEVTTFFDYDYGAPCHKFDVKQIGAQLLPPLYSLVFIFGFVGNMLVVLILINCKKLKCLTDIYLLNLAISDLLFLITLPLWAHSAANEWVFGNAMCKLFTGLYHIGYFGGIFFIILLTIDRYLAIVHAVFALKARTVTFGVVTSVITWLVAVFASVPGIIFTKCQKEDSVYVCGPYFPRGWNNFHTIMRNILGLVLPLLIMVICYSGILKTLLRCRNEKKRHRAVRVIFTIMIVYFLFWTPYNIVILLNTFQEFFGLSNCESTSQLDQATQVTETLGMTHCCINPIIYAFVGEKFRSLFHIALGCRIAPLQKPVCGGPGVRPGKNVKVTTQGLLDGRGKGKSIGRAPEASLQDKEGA
# [5] = target: recombinant human DP4 (Homo sapiens, UniProt P27487); assay: N-terminal degradation of human MCP-2, MCP-3 and MCP-4 by DP4, Maldi-TOF mass spectrometry; type: in vitro ADME; details: for truncation by DP4 of uncyclized variants starting with N-terminal glutamine: recombinant human DP4, 30° C.; for proteolytic degradation by DP4 with N-terminal pGlu-residue: pre-incubated with recombinant human QC 3 h, then DP4
# Chain of recombinant human DP4 (P27487 whole entry, the tested form may be a part): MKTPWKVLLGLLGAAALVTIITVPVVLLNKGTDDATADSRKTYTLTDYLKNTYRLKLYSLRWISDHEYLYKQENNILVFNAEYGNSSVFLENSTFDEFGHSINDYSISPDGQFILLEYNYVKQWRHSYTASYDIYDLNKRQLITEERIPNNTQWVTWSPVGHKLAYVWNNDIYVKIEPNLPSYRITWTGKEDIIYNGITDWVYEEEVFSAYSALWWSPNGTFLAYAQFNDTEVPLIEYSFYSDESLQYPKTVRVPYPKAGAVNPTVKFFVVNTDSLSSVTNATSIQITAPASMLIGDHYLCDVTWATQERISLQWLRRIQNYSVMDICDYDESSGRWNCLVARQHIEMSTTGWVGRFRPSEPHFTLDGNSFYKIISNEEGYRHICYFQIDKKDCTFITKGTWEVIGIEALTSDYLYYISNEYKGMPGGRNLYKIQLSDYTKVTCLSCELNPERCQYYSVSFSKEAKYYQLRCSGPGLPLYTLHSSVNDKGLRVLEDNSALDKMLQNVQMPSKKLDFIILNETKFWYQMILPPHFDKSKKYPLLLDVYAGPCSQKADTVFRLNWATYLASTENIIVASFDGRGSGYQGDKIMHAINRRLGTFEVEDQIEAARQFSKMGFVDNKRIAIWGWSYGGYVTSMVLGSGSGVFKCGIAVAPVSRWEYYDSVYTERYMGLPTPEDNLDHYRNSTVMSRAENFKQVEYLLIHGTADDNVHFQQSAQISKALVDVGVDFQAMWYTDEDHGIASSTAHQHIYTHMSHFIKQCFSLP
# Experimental: Resulting DP4 cleavage products were analyzed using Maldi-TOF mass spectrometry after 0 min, 15 min, 30 min, 1 h, 2 h, 4 h and 24 h.
# (§3) MCP-3 was either pre-incubated with recombinant human QC (0.0006 mg/ml) for 3 h at 30° C. and subsequently incubated with recombinant human DP4 (0.00012 mg/ml) at 30° C. or incubated with recombinant human DP4 (0.00012 mg/ml) without prior QC application. Resulting DP4 cleavage products were analyzed using Maldi-TOF mass spectrometry after 0 min, 15 min, 30 min, 1 h, 2 h, 4 h and 24 h.
# as §3, with “MCP-4” for “MCP-3”, “(0.00006” for “(0.00012”
# [6] = incubation with human serum without QC pre-incubation, FIG. 7A
compound,measurement,setting,value
"CCC(C)C(N)C(=O)N1CCSC1 (stereo not shown) [Isoleucyl-Thiyzolidide, Isoleucyl-Thiazolidide]",N-terminal degradation of MCP-1 in serum,[1],prevents the N-terminal degradation
Gln1-MCP-1: Recombinant human MCP-1(1-76) (SEQ ID NO: 1) starting with an N-terminal glutamine (Peprotech),"final ratio, full-length pGlu1-MCP-1",[2]; [6],~40%
same,"final ratio, truncated Asp3-MCP-1",[2]; [6],approx. 60%
same,MCP-1 concentrations needed to elicit the maximum response,[3],500 to 1000 ng/mL
"MCP-1, 1-10: peptide corresponding to MCP-1, 1-10 (QPDAINAPVT; UniProt P13500 24-33, looked up, fragment) [reference compound]",receptor-binding activities,[4],lacked detectable receptor-binding activities
"MCP-1: monocyte chemotactic protein-1, CCL2; form in the cited binding study not stated",Kd,[4],2.8 nM
MCP-2: Human recombinant MCP-2 (SEQ ID NO: 11) carrying an N-terminal glutaminyl residue (Peprotech),truncation by DP4 of uncyclized variants starting with N-terminal glutamine,[5],readily truncated
same,influence of pGlu-formation at the N-terminus on chemotactic potency,[3],no influence
same,chemotactic potency of N-truncated DP4 cleavage products,[3],partial inactivation
MCP-3: Human recombinant MCP-3 (SEQ ID NO: 12) carrying an N-terminal glutaminyl residue (Peprotech),proteolytic degradation by DP4 with N-terminal pGlu-residue,[5],protects
same,truncation by DP4 of uncyclized variants starting with N-terminal glutamine,[5],readily truncated
same,influence of pGlu-formation at the N-terminus on chemotactic potency,[3],no influence
same,chemotactic potency of N-truncated DP4 cleavage products,[3],partial inactivation
MCP-4: Human recombinant MCP-4 (SEQ ID NO: 13) carrying an N-terminal glutaminyl residue (Peprotech),proteolytic degradation by DP4 with N-terminal pGlu-residue,[5],protects
same,truncation by DP4 of uncyclized variants starting with N-terminal glutamine,[5],readily truncated
same,influence of pGlu-formation at the N-terminus on chemotactic potency,[3],slightly increases
same,chemotactic potency of N-truncated DP4 cleavage products,[3],partial inactivation
"pGlu1-MCP-1: human MCP-1 with N-terminal pyroglutamic acid, generated by incubation of Gln1-MCP-1 with recombinant human QC",degradation in human serum,"[2]; pre-incubation with human QC, chosen time-frame (24 h) and dilution of the serum, FIG. 7B",no degradation
same,MCP-1 concentrations needed to elicit the maximum response,[3],50 to 100 ng/mL
